According to patent publication US20220340673A1 (HARBOUR BIOMED SUZHOU, published 2022):

T1: human BCMA on cells (HEK293T/huBCMA; NCI-H929) (human, UniProt Q02223 1-184)
T1 construct: whole, on cells; also called human BCMA molecules on NCI-H929 cell line
T1 sequence (looked up): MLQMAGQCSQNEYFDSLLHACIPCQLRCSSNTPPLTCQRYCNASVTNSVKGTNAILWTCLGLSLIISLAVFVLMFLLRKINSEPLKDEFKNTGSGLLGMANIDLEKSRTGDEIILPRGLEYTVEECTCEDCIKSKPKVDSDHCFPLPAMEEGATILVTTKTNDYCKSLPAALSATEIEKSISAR

T2: human BCMA protein with Fc Tag (ACRO, Cat#: BC7-H5254) (human, UniProt Q02223 1-54)
T2 construct: Bought reagent coated on the ELISA plate; not shown: Fc tag of the bought protein
T2 sequence (looked up): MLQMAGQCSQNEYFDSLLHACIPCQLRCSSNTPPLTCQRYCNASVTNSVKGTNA


Legend:
[1] = target: T1, human BCMA on cells (HEK293T/huBCMA; …); test: FACS on NCI-H929 cell line [D]
Procedure: (§1) This example was conducted to study the binding activity of anti human BCMA HCAb monoclonal antibodies to human and cynomolgus monkey BCMA in vitro. HEK293T cell strain (HEK293T/huBCMA, Beijing Kang yuan) overexpressing human BCMA, HEK293T cell strain (HEK293T/cynoBCMA, Beijing Kang yuan) overexpressing cynomolgus monkey BCMA and NCI- H929 cell line (ATCC® CRL-9068TM) highly expressing human BCMA were used for antibody binding assay at cellular level. Briefly, HEK293T/huBCMA cells and HEK293T/cynoBCMA cells were digested and resuspended with DMEM complete medium, and NCI-H929 cell suspensions were collected by resuspension with DMEM complete medium. The density of the three cells was adjusted to 1×10⁶ cells/mL, respectively. The cells were inoculated at 100 μL cells/well in 96 well V-bottom plates (Corning, Cat#: 3894), followed by the addition of test antibodies at 100 μL/well, which is gradient diluted at 3 folds of the concentration with 2 folds of the final concentration. Cells were incubated at 4° C. for 1 hours in the dark. Afterwards, the cells were washed twice with 100 μL/well of pre-cooled PBS, centrifuged at 500 g for 5 min at 4° C. and followed by discarding the supernatant. […] Finally, the cells were resuspended with 200 μL/well of pre-cooled PBS and the fluorescent luminescence signal values were read by using BD FACS CANTOII.

[2] = target: T1, human BCMA on cells (HEK293T/huBCMA; …); test: FACS on HEK293T cell strain overexpressing human BCMA [D]
Procedure: as §1

[3] = target: T3, cynomolgus monkey BCMA on cells (HEK293T/cynoBCMA) (cynomolgus monkey, UniProt A0A2K5UD97 1-183); test: FACS on HEK293T cell strain overexpressing cynomolgus monkey BCMA [D]
T3 construct: whole, on cells
T3 sequence (A0A2K5UD97 entry or part of it): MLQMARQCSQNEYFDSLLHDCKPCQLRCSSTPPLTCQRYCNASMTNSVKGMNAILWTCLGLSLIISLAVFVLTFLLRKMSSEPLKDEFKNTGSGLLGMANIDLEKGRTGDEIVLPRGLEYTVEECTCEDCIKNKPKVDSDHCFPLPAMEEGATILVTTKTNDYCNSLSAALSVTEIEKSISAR
Procedure: as §1

[4] = target: T2, human BCMA protein with Fc Tag (ACRO, …); test: ELISA, plate coated with human BCMA-Fc; antibody blocks the binding of biotinylated human BAFF [B]
Procedure: This example was conducted to evaluate the blockage ability of anti-human BCMA HCAb monoclonal antibody to the binding of human BCMA (ACRO, BCA-H522y-100 μg) with ligand BAFF protein (ACRO, BAF-H5248-50 μg). The BAFF protein was biotinylated by using a biotinylation kit (ThermoFisher, A39257, EZ-Link Sulfo-NHS-LC-Biotin) according to the instructions. The plates (Corning, Cat#: 9018) were coated with 1 μg/mL of human BCMA protein with Fc Tag (ACRO, Cat#: BC7-H5254) overnight. The plates were washed for 3 times with PBST, added with 2% BSA and then sealed at room temperature for 1 hour. The plates were washed with PBST for 3 times, and added with test antibody gradient diluted at 3 folds concentration 100 μL/well, with an initial concentration of 50 nM. After being incubated for 1h, the supernatant was discarded and 0.5 μg/mL of biotinylated human BAFF protein (prepared according to conventional methods in the art) was added to the plates at 100 μL/well. The plates were incubated at room temperature for 1 h and discarded the supernatant. Streptavidin-coupled HRP (Bio-RAD, Cat#: 1610380) with 1: 4000 diluted was added at 100 μL/well. The plates were incubated for 1 h at room temperature and washed with PBST for 3 times. […] OD450 values were read by using Enspire (Perkin Elmer).

[5] = target: T1, human BCMA on cells (HEK293T/huBCMA; …); test: FACS on NCI-H929 cell line [B]
Procedure: To study the binding activity of the BCMA arm of the BCMA×CD3 bispecific antibody to human BCMA, NCI-H929 cell line with highly expressed BCMA was used for binding experiments with human BCMA at cellular level. Briefly, NCI-H929 cell suspensions were collected. The cell density was adjusted to 1×10⁶ cells/mL, and the cells were inoculated in 96 well V-bottom plates at 100 μL cells/well (Corning, Cat#: 3894), followed by the addition of test antibodies at 100 μL/well, which is gradient diluted at 3 folds of the concentration with 2 folds of the final concentration. Cells were incubated at 4° C. for 2 hours in the dark. Afterwards, cells were washed twice with 100 μL/well of pre-cooled PBS, centrifuged at 500 g for 5 min at 4° C., and followed by discarding the supernatant. 100 μL/well of fluorescent secondary antibody (Alexa Fluor 488-conjugated AffiniPure Goat Anti-Human IgG, Fcγ Fragment Specific, Jackson, Cat#:109-545-06, 1:500 dilution) was added and incubated at 4° C. for 1 hour in the dark. Cells were washed twice with 100 μL/well of pre-cooled PBS, centrifuged at 500 g, 4° C. for 5 min, and followed by discarding the supernatant. Finally, the cells were resuspended with 200 μL/well of pre-cooled PBS, and the fluorescence luminescence signal values were read by BD FACS CANTOII.

Row | Binder | EC50 [1] | EC50 [2] | EC50 [3] | IC50 [4] | EC50 [5]
1 | positive control 1, PR000274 (anti-BCMA antibody CA8-J6M0 hIgG1) (antibody, V domains shown, Full-length hIgG1 control antibody) VH: QVQLVQSGAEVKKPGSSVKVSCKASGGTFSNYWMHWVRQAPGQGLEWMGATYRGHSDTYYNQKFKGRVTITADKSTSTAYMELSSLRSEDTAVYYCARGAIYDGYDVLDNWGQGTLVTVSS VL: DIQMTQSPSSLSASVGDRVTITCSASQDISNYLNWYQQKPGKAPKLLIYYTSNLHSGVPSRFSGSGSGTDFTLTISSLQPEDFATYYCQQYRKLPWTFGQGTKLEIKR | 10.8 nM | 4.07 nM | 4.56 nM | 4.36 nM | –
2 | anti-human BCMA HCAb monoclonal antibody PR001046 (antibody, human IgG1, V domains shown, also called PRO01046; HBM1005P63B7) VH: EVQLVETGGGLIQPGGSLRLSCAASGFTVSDNYMTWVRQAPGKGLEWVSVIFSGGNTYYADSVKGRFTISRDNAKNTLYLQMNSLRAEDTALYYCARRNYDDTRGTDVFDIWGQGTMVTVSS | 1.53 nM | 0.213 nM | 0.564 nM | 2.94 nM | –
3 | BCMA x CD3 bispecific antibody PR002299 (bispecific antibody, human IgG1, lambda, L234A L235A) heavy 1: EVQLLESGGGLVQPGGSLRLSCAASGFTFSTYAMNWVRQAPGKGLEWVSRIRSKYNNYATYYADSVKDRFTISRDDSKSTLYLQMNSLRAEDTAVYYCVRHGNFGNSYVSWFAYWGQGTLVTVSSASTKGPSVFPLAPSSKSTSGGTAALGCLVKDYFPEPVTVSWNSGALTSGVHTFPAVLQSSGLYSLSSVVTVPSSSLGTQTYICNVNHKPSNTKVDKKVEPKSCDKTHTCPPCPAPEAAGGPSVFLFPPKPKDTLMISRTPEVTCVVVDVSHEDPEVKFNWYVDGVEVHNAKTKPREEQYNSTYRVVSVLTVLHQDWLNGKEYKCKVSNKALGAPIEKTISKAKGQPREPQVYTLPPCREEMTKNQVSLWCLVKGFYPSDIAVEWESNGQPENNYKTTPPVLDSDGSFFLYSKLTVDKSRWQQGNVFSCSVMHEALHNHYTQKSLSLSPGK light: QAVVTQEPSLTVSPGGTVTLTCRSSTGAVTTSNYANWVQQKPGQAPRGLIGGTNKRAPWTPARFSGSLLGDKAALTLLGAQPEDEAEYFCALWYSNLWVFGGGTKLTVLGQPKAAPSVTLFPPSSEELQANKATLVCLISDFYPGAVTVAWKADSSPVKAGVETTTPSKQSNNKYAASSYLSLTPEQWKSHRSYSCQVTHEGSTVEKTVAPTECS heavy 2: EVQLLESGGGLVQPGGSLRLSCAASGFTFSSYAMIWVRQAPGKGLEWVSGISESGGSTYYADSVKGRFTISRDNSKNTLYLQMNSLRAEDTAVYFCVKDLDDILTGYYKDYWGQGTLVTVSSRTGGGGSKLEVQLLESGGGLVQPGGSLRLSCAASGFTFSSYAMIWVRQAPGKGLEWVSGISESGGSTYYADSVKGRFTISRDNSKNTLYLQMNSLRAEDTAVYFCVKDLDDILTGYYKDYWGQGTLVTVSSASEPKSSDKTHTCPPCPAPEAAGGPSVFLFPPKPKDTLMISRTPEVTCVVVDVSHEDPEVKFNWYVDGVEVHNAKTKPREEQYNSTYRVVSVLTVLHQDWLNGKEYKCKVSNKALGAPIEKTISKAKGQPREPQVCTLPPSREEMTKNQVSLSCAVKGFYPSDIAVEWESNGQPENNYKTTPPVLDSDGSFFLVSKLTVDKSRWQQGNVFSCSVMHEALHNHYTQKSLSLSPGK | – | – | – | – | 57.2 nM
